Source: paper doi:10.1101/2021.09.02.458738

Biological target: ArPEC25-mCherry (Ascochyta rabiei)
Assay: FRET or BRET

## CaβLIM1a-GFP (natural protein)
  FRET efficiency: 2.75
